Results on one molecule are retold here after paper PMC3958346, “Clearance Kinetics and Matrix Binding Partners of the Receptor for Advanced Glycation End Products” (PLoS ONE, 2014).

Values joined by “and” are separate entries in the source; they are usually repeats but may differ in a detail not shown here. Equal values may be shown once.

Common to all, as to experiment: BLI; ForteBIO Octet; purified mouse sRAGE conjugated to amine-reactive sensor tips, matrix protein in solution in varying concentrations; 1800 s association, dissociation in PBS; fit to the 1:1 Langmuir model; constants printed for each analyte concentration
Details in all cases: both partners purified

The target of experiment [1] is Collagen I (Sigma product, species and catalogue number not printed (could be rat or bovine). Natural alpha1(I)2 alpha2(I) heterotrimer taken by convention, propeptides removed; hydroxyproline, hydroxylysine, gly).
Experiment [2] concerns the target Collagen IV (Sigma product, species and catalogue number not printed (human placenta or mouse EHS are both likely). Common alpha1(IV)2 alpha2(IV) heterotrimer taken by convention, 7S domain kept; hydroxyproline, h).
Experiment [3] addresses Laminin.

B1: Mouse soluble RAGE (soluble receptor for advanced glycation end products) (natural protein, UniProt Q62151-1 22-330, looked up)
chain: GGQNITARIGEPLVLSCKGAPKKPPQQLEWKLNTGRTEAWKVLSPQGGPWDSVARILPNGSLLLPATGIVDEGTFRCRATNRRGKEVKSNYRVRVYQIPGKPEIVDPASELTASVPNKVGTCVSEGSYPAGTLSWHLDGKLLIPDGKETLVKEETRRHPETGLFTLRSELTVIPTQGGTHPTFSCSFSLGLPRRRPLNTAPIQLRVREPGPPEGIQLLVEPEGGIVAPGGTVTLTCAISAQPPPQVHWIKDGAPLPLAPSPVLLLPEVGHEDEGTYSCVATHPSHGPQESPPVSIRVTETGDEGPAEGS
notes: Mouse soluble RAGE, residues 22-330, signal peptide cleaved off; mass 35742.30 Da; mouse membrane RAGE has a published length of 402 (NP_031451.2); Native protein from tissue; Coupled to amine-reactive sensor tips in one orientation, in solution in the other; also called sRAGE; mouse sRAGE; source: endotoxin removed with Detoxi-Gel polymyxin B resin
For B1, in experiment [1], the Kd was 3.51 nM and 1.62 nM and 1.84 nM. In addition, in experiment [2], the Kd is 2.57 nM and 3.59 nM and 4.81 nM; the koff is 6.26e-05 s⁻¹ and 7.72e-05 s⁻¹ and 8.1e-05 s⁻¹; the kon was 24400 M⁻¹ s⁻¹ and 21500 M⁻¹ s⁻¹ and 16700 M⁻¹ s⁻¹. In experiment [3], the koff is 0.000191 s⁻¹ and 0.000102 s⁻¹ and 8.02e-05 s⁻¹ and 0.000108 s⁻¹; the kon is 75400 M⁻¹ s⁻¹ and 106000 M⁻¹ s⁻¹ and 136000 M⁻¹ s⁻¹ and 171000 M⁻¹ s⁻¹.
